Columns and labels:
[1] = molecular target: T1, rat megalin (rat, UniProt P98158 26-4660); assay: SPR; rat megalin or cubilin immobilised; human cysC flowed at 20-500 nM (7 concentrations); CaHBS: 10 mM HEPES, 150 mM NaCl, 1.5 mM CaCl2, 1 mM EGTA, pH 7.4; Biacore 3000; Langmuir 1:1 model, global fit; conditions: both partners purified
T1 construct: megalin, rat, purified and immobilised on the SPR chip; probably the native receptor purified from rat kidney (surmised)

[2] = molecular target: T2, rat cubilin (rat, UniProt O70244 33-3623); assay: as above; conditions: both partners purified
T2 construct: cubilin, rat, purified and immobilised on the SPR chip; probably the native receptor purified from rat kidney (surmised)

T1 sequence (P98158 26-4660): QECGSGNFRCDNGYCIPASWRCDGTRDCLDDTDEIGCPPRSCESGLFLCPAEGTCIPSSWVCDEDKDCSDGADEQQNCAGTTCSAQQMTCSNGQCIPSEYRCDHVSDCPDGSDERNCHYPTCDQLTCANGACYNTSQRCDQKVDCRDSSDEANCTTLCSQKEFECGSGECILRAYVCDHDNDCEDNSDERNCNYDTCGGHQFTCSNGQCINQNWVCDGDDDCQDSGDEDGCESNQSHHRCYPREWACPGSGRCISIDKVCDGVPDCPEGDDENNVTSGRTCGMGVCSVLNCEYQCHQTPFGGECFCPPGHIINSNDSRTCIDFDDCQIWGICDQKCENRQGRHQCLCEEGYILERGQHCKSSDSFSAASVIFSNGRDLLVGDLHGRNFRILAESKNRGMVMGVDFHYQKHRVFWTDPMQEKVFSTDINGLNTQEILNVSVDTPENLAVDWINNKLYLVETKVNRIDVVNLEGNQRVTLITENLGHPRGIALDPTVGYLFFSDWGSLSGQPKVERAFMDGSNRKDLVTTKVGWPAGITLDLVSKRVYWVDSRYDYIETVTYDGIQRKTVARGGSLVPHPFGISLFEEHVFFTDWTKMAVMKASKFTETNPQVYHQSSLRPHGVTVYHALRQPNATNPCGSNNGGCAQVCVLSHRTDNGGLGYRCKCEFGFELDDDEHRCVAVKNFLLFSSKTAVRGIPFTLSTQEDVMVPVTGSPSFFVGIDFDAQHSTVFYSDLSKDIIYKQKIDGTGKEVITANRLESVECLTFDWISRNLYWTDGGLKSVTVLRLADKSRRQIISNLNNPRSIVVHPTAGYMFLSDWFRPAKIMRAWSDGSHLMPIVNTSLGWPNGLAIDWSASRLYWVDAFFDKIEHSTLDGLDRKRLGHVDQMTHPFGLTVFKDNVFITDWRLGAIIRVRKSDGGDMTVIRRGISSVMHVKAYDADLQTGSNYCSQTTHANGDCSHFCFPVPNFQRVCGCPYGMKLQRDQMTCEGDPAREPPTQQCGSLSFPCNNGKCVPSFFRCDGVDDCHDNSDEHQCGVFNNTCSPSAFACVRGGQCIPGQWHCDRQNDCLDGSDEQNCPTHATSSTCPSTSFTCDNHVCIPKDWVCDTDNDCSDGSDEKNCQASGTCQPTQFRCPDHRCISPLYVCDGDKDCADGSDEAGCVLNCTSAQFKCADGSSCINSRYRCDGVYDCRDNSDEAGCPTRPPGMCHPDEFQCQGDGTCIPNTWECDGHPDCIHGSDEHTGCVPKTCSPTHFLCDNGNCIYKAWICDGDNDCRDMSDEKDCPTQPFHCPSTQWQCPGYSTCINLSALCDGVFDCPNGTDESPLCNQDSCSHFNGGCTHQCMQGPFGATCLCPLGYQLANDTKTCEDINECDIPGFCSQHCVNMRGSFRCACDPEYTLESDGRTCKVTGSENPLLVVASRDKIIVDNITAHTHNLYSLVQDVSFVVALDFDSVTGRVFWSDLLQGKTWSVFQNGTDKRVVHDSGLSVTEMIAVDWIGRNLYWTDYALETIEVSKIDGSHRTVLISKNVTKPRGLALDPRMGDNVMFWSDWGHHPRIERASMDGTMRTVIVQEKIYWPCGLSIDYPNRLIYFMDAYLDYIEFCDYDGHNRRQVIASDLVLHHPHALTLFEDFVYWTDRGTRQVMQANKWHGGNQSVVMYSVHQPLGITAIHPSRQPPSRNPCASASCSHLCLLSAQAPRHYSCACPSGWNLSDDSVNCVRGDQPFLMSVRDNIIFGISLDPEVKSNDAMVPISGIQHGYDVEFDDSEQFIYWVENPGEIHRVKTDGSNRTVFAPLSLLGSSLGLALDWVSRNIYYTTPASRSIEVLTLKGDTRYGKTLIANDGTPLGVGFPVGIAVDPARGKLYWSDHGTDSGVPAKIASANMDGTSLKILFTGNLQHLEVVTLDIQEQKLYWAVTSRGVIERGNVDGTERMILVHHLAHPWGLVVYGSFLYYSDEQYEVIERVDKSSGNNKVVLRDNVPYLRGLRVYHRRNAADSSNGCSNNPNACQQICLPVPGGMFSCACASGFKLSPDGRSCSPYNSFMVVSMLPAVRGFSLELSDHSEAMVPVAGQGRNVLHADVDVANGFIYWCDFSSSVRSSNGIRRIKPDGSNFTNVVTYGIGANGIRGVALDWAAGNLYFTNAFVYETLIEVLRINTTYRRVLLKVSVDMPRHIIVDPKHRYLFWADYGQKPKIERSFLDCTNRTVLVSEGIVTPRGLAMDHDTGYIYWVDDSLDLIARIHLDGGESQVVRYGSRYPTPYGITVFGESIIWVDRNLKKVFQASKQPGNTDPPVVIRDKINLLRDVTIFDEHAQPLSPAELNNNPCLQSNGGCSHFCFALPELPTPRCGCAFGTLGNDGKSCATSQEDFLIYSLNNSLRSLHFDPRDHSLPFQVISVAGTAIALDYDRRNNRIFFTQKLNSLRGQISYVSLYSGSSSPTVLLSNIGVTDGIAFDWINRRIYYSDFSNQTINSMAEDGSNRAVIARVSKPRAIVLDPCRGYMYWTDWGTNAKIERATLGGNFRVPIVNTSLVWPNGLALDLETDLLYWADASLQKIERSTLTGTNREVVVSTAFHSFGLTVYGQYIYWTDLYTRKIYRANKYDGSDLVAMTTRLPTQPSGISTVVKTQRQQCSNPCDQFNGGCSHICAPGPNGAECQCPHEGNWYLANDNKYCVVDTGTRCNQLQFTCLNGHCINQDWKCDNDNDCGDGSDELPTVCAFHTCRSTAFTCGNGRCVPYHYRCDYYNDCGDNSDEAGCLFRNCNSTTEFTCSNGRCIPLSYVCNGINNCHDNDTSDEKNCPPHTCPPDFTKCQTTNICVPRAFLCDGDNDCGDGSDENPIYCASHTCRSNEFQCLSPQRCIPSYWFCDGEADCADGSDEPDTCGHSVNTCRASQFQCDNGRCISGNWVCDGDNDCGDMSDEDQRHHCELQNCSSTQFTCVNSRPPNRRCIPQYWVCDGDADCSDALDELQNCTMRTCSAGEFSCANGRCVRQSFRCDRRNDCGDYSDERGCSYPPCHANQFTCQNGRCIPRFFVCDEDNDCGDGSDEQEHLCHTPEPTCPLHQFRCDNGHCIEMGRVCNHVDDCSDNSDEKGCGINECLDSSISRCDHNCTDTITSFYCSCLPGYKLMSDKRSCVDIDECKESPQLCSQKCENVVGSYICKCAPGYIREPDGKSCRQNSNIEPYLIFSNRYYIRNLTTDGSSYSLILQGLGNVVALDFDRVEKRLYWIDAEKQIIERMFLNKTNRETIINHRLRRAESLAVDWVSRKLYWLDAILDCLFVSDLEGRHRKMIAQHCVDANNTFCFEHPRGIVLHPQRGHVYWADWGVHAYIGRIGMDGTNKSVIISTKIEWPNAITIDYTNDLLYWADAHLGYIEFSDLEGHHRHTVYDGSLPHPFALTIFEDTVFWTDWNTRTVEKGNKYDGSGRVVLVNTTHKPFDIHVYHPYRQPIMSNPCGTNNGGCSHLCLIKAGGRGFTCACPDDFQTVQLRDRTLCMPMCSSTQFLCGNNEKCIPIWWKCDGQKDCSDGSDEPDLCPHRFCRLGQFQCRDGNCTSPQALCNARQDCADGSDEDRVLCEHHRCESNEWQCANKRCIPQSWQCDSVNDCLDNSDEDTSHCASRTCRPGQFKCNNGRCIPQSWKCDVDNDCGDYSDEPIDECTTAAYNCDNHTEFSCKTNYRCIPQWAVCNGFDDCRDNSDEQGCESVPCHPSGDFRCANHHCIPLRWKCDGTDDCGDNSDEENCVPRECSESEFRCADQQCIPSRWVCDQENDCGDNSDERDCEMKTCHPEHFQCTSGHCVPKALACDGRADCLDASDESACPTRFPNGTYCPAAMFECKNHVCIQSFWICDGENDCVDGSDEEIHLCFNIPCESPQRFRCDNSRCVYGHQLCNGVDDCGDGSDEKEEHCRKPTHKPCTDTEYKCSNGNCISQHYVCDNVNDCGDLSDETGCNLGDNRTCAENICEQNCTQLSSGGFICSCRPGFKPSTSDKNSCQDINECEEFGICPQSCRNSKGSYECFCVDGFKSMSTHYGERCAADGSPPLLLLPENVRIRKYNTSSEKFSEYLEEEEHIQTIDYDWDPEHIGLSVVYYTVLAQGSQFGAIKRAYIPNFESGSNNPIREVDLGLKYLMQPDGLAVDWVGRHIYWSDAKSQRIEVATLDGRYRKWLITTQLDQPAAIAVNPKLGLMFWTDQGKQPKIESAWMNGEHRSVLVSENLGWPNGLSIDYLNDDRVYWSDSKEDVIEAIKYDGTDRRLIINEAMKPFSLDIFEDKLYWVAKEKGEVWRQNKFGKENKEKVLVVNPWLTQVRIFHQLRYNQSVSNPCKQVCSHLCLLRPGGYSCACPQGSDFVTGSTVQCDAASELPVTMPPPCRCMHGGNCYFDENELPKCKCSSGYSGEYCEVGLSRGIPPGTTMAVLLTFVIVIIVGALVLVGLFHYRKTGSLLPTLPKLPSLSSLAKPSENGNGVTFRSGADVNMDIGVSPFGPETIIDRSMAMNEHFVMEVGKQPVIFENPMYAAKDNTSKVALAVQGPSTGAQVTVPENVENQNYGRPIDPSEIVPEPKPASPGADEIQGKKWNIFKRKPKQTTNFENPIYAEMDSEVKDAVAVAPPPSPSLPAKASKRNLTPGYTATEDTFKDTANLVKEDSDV

B1: human cystatin C (natural protein, UniProt P01034 27-146, looked up)
chain: SSPGKPPRLVGGPMDASVEEEGVRRALDFAVGEYNKASNDMYHSRALQVVRARKQIVAGVNYFLDVELGRTTCTKTQPNLDNCPFHDQPHLKRKAFCSFQIYAVPWQGTMTLSKSTCQDA
notes: also called cysC
B1 was tested, and the Kd [1] was about 32 nM and the Kd [2] was about 24 nM.
